Laboratory results published in paper PMC9201872.
Where two headings read alike, the source gives them in different places. Each block holds one substance with its values, some of them ahead of it.

Columns and labels:
[1] = biological target: TIM-SNAP-HA (Timeless, S-TIM) (Drosophila melanogaster); test: pull-down
[2] = biological target: TIM-SNAP-HA (Timeless, S-TIM) (Drosophila melanogaster); test: native gel or EMSA
[3] = biological target: TIM-SNAP-HA (Timeless, S-TIM) (Drosophila melanogaster); test: pull-down; remark: listed apart in the source
[4] = biological target: TIM-SNAP-HA (Timeless, S-TIM) (Drosophila melanogaster); test: pull-down; remark: listed apart in the source

TIM-SNAP-HA (Timeless, S-TIM) (Drosophila melanogaster), sequence (A4V040 whole entry): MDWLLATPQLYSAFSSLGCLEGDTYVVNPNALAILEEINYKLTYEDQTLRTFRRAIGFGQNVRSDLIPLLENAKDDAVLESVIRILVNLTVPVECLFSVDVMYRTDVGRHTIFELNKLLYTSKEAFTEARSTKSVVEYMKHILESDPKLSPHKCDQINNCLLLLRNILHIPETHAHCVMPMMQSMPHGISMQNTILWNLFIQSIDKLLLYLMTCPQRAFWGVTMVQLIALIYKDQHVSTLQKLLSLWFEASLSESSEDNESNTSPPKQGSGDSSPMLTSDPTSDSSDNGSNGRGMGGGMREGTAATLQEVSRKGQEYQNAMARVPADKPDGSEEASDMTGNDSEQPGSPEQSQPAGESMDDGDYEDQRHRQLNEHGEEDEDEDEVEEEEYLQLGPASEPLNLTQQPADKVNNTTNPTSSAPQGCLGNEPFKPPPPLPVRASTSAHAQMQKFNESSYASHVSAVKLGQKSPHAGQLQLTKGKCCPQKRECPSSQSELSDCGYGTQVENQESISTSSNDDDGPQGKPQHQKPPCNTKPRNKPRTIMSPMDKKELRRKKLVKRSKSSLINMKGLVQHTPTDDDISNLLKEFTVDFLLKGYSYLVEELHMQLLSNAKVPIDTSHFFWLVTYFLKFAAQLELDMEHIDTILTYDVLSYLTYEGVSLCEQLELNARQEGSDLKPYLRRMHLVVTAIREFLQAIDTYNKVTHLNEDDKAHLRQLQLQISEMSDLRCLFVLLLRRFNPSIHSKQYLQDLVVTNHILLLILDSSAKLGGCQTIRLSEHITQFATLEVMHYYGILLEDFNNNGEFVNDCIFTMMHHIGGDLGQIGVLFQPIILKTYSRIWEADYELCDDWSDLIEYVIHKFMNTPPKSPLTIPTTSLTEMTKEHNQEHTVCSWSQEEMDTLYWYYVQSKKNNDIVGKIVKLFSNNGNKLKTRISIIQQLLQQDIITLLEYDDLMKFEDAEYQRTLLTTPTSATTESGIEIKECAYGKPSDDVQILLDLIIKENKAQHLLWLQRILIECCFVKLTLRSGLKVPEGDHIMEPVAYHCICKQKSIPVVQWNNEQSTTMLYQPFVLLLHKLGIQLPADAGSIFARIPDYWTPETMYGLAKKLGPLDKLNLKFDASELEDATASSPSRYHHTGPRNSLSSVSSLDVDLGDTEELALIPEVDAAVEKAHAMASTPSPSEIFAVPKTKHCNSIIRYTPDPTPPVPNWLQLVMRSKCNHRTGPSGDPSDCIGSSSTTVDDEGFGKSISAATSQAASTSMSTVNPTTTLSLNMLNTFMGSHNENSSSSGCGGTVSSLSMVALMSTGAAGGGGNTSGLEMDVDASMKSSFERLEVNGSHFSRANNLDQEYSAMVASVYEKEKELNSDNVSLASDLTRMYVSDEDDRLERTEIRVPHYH

Kd [1]: 1700 nM
stoichiometry N [2]: 1.08
Kd [3]: 1500 nM
Substance: CLIP-CRYΔ (residue 1-520) (from UniProt O77059 1-520) (domain or fragment)

fold greater affinity than CRYΔ [1]: 10 fold
fold greater affinity than CRYΔ [4]: 10 fold
Substance: CLIP-CRY H377L (from UniProt O77059 1-539) (natural protein)

fold difference in KD against CRYΔ [1]: 35 fold
Substance: CLIP-CRY W394F (from UniProt O77059 1-539) (natural protein)

Kd [1]: 18100 nM
Substance: CLIP-CRY H377A (from UniProt O77059 1-539) (natural protein)
